Data published in US20230406950A1 (LYVGEN BIOPHARMA, published 2023).
Values belong to the binder of their own block, whether it stands above or below them.

Assays:
[1] = target: T1, human PD-1 expressed on cells (human, UniProt Q15116 25-288); assay: flow cytometry (FACS), MFI, CHO cells expressing human PD-1
T1 construct: whole, on cells; also called human PD-1 over-expressed on the CHO cells; Jurkat/NFkB-Luci/PD-1 cells
Procedure: (§1) Exemplary anti-PD-1/CD137 bi-specific antibodies were analyzed by FACS for their binding properties to human PD-1 and/or human CD137 expressed on CHO cells. Briefly, cultured cells were harvested, counted and cell viability was evaluated using the Trypan Blue exclusion method. Viable cells were then adjusted to 2×10⁶ cells per mL in PBS containing 2% BSA. 100 μL of this cell suspension were further aliquoted per well into a V-bottom 96-well plate. […] After incubation for 2 hours at 4° C., cells were centrifuged (3 min, 1000× g), washed with 250 μL/well BSA-containing FACS Stain Buffer, resuspended and incubated for an additional 1 hour at 4° C. with 100 μL/well fluorochrome-conjugated anti-IgG antibody for detection of the bisepecific antibody. Cells were then washed with 250 μL/well BSA-containing FACS Stain Buffer, resuspended in 100 μL/well FACS Stain Buffer, acquired and analyzed using a FACS machine. Binding of the bispecific antibodies to human PD-1 or human CD137 expressing CHO cells were evaluated and the mean fluorescence intensity is plotted in histograms or dot plots.

[2] = target: T2, human CD137 expressed on cells (human, UniProt Q07011 24-255); assay: flow cytometry (FACS), MFI, CHO cells expressing human CD137
T2 construct: whole, on cells; also called 4-1BB; TNFRSF9
Procedure: as §1

[3] = target: T3, human CD137 ECD protein (His tag) (human, UniProt Q07011 24-186); assay: bridging ELISA: human CD137 ECD (His tag) coated, antibody titrated, then human PD-1 ECD (mouse IgG2a Fc tag), HRP anti-mouse IgG2a Fc; A450-A620
T3 construct: extracellular domain; also called recombinant human CD137; not shown: His tag
Procedure: Exemplary anti-PD-1/CD137 bi-specific antibodies were analyzed by ELISA for their simultaneous binding to recombinant human PD-1 and human CD137. Briefly, human CD137 ECD protein (His tag) was diluted and coated onto an ELISA plate with a volume of 100 μL/well by incubation at 4° C. overnight. The next day, the plate was blocked with PBST-BSA buffer, then serially diluted samples of anti-PD-1/CD137 bi-specific antibodies were pipetted into appropriate wells at 50 μL/well, and the plate was incubated for 1 hour followed by washing. The extracellular domain (ECD) of human PD-1 protein (mouse IgG2a Fc tag) was added into the plate at 50 μL/well. After 1-hour incubation at room temperature, HRP-conjugated anti-Mouse IgG, Fc G2a specific antibody was added into the plate at 100 μL/well. The plate was incubated for 1 hour at room temperature followed by washing. TMB substrate solution was added at 100 μL/well and the color development was stopped by adding 100 uL/well Stop Solution (2N H₂SO₄). Absorbance at 450 nm and 620 nm was read by Tecan F200 Pro plate reader. GraphPad 7.0, “[Agonist] vs. response—Variable slope (four parameters)” was used to plot the binding data and calculate binding EC50 values.

T1 sequence (Q15116 25-288): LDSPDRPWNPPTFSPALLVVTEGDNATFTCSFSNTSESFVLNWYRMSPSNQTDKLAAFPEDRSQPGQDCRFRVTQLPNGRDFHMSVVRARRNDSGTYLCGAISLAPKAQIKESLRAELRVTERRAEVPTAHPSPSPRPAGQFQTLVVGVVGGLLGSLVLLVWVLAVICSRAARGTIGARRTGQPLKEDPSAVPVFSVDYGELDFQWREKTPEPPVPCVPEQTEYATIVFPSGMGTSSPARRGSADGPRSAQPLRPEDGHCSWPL
T2 sequence (Q07011 24-255): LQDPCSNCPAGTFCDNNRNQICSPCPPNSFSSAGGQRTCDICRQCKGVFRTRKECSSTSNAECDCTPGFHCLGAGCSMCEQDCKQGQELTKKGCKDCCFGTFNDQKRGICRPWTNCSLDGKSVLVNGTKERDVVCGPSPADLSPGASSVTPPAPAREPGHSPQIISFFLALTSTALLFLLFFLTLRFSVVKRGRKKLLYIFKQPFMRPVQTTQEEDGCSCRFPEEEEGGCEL

EC50 (read off the curve) [1]: ~0.1 µg/mL | EC50 (read off the curve) [2]: ~0.2 µg/mL | EC50 (read off the curve) [3]: ~0.03 µg/mL
B1: Ly513 (bispecific antibody, human IgG2, kappa)
heavy: QVTLKESGPALVKPTQTLTLTCTFSGFSLSTSGTCVSWIRQPPGKALEWLATICWEDSKGYNPSLKSRLTISKDTSKNQAVLTMTNMDPVDTATYYCARREDSGYFWFPYWGQGTLVTVSSASTKGPSVFPLAPCSRSTSESTAALGCLVKDYFPEPVTVSWNSGALTSGVHTFPAVLQSSGLYSLSSVVTVPSSNFGTQTYTCNVDHKPSNTKVDKTVERKCCVECPPCPAPPVAPSVFLFPPKPKDTLMISRTPEVTCVVVDVSHEDPEVQFNWYVDGVEVHNAKTKPREEQFNSTFRVVSVLTVVHQDWLNGKEYKCKVSNKGLPAPIEKTISKTKGQPREPQVYTLPPSREEMTKNQVSLTCLVKGFYPSDIAVEWESNGQPENNYKTTPPMLDSDGSFFLYSKLTVDKSRWQQGNVFSCSVMHEALHNHYTQKSLSLSPGK
light: NIQMTQSPSSLSASVGDRVTITCKAGQNVNNYLAWYQQKPGKAPKVLIFNANSLQTGVPSRFSGSGSGTDFTLTISSLQPEDFATYYCQQYNSWPTFGGGTKVEIKRTVAAPSVFIFPPSDEQLKSGTASVVCLLNNFYPREAKVQWKVDNALQSGNSQESVTEQDSKDSTYSLSSTLTLSKADYEKHKVYACEVTHQGLSSPVTKSFNRGECGGGGSGGGGSGGGGSGGGGSQVQLVQSGAEVKKPGASVKVSCKASGYTFAGFEMHWVRQAPGQGLEWMGAIDPKTGGTDYNQKFKDRVTMTRDTSISTAYMELSRLRSDDTAVYYCARDLGYFDVWGQGTLVTVSSGGGGSGGGGSGGGGSGGGGSDIQMTQSPSSLSASVGDRVTITCRASQDIRSNLNWYQQKPGGAVKLLIYYTSRLHSGVPSRFSGSGSGTDYTLTISSLQPEDFATYFCQQSEKLPRTFGGGTKVEIR
notes: Anti-PD-1/CD137: Ly516 heavy chain; Ly516 light chain fused to Ly1630 scFv (VH-VL)

EC50 (read off the curve) [1]: ~0.2 µg/mL | EC50 (read off the curve) [2]: ~0.2 µg/mL | EC50 (read off the curve) [3]: ~0.02 µg/mL
B2: Ly457 (bispecific antibody, human IgG1, kappa)
heavy: QVTLKESGPALVKPTQTLTLTCTFSGFSLSTSGTCVSWIRQPPGKALEWLATICWEDSKGYNPSLKSRLTISKDTSKNQAVLTMTNMDPVDTATYYCARREDSGYFWFPYWGQGTLVTVSSASTKGPSVFPLAPSSKSTSGGTAALGCLVKDYFPEPVTVSWNSGALTSGVHTFPAVLQSSGLYSLSSVVTVPSSSLGTQTYICNVNHKPSNTKVDKKVEPKSCDKTHTCPPCPAPELLGPSVFLFPPKPKDTLMISRTPEVTCVVVDVSHEDPEVKFNWYVDGVEVHNAKTKPREEQYNSTYRVVSVLTVLHQDWLNGKEYKCKVSNKALPAPIEKTISKAKGQPREPQVYTLPPSREEMTKNQVSLTCLVKGFYPSDIAVEWESNGQPENNYKTTPPVLDSDGSFFLYSKLTVDKSRWQQGNVFSCSVMHEALHNHYTQKSLSLSPGGGGGSGGGGSGGGGSGGGGSQVQLVQSGAEVKKPGASVKVSCKASGYTFAGFEMHWVRQAPGQGLEWMGAIDPKTGGTDYNQKFKDRVTMTRDTSISTAYMELSRLRSDDTAVYYCARDLGYFDVWGQGTLVTVSSGGGGSGGGGSGGGGSGGGGSDIQMTQSPSSLSASVGDRVTITCRASQDIRSNLNWYQQKPGGAVKLLIYYTSRLHSGVPSRFSGSGSGTDYTLTISSLQPEDFATYFCQQSEKLPRTFGGGTKVEIR
light: NIQMTQSPSSLSASVGDRVTITCKAGQNVNNYLAWYQQKPGKAPKVLIFNANSLQTGVPSRFSGSGSGTDFTLTISSLQPEDFATYYCQQYNSWPTFGGGTKVEIKRTVAAPSVFIFPPSDEQLKSGTASVVCLLNNFYPREAKVQWKVDNALQSGNSQESVTEQDSKDSTYSLSSTLTLSKADYEKHKVYACEVTHQGLSSPVTKSFNRGEC
notes: Anti-PD-1/CD137: Ly516 heavy chain fused to Ly1630 scFv (VH-VL); Ly516 light chain
